Read-outs that look alike come from different tables or passages of the source. Blank lines part the entries; values can stand above or below the molecule they belong to. Ends that are not written are not given here. Peptide text beside a SMILES is read from it. * marks the point of attachment. 5FAM = O=C1OC2(c3ccc(O)cc3Oc3cc(O)ccc32)c2ccc(C(=O)*)cc21; 5Flu = 5-carboxyfluorescein label
Assays:
[1] = biological target: T1, SPOP^MATH (SPOP MATH domain) (Homo sapiens, UniProt O43791); test: FP competition assay: unlabelled peptide versus Puc-5Flu peptide on SPOP^MATH; type: binding; conditions: read-out: IC50, FP competition, MyD88 peptides of varying length (Figure 1F)
T1 construct: bacterially expressed SPOP protein (SPOP^MATH); hexahistidine-MBP (with HRV 3C site) (N, cleaved yes); made in house; host or cells: E. coli BL21 (DE3); tracer peptide synthesized by Peptide Synthetics
Method: (§1) Peptides and SPOP^MATH protein were diluted in FP buffer (50 mM HEPES pH 7.5, 100 mM NaCl, 1 mM TCEP, 0.005% Tween-20). Measurements were made in 384-well black flat-bottom low-flange plates (Corning) using 20 μl reaction volumes. Plates were equilibrated at room temperature for 30 minutes before reading. Millipolarization (mP) measurements were taken in a Hidex Sense microplate reader (Hidex) at 25°C, with excitation at 490 nm (20 nm filter), emission at 520 nm (14 nm filter), and a G-factor of 1.
The technical duplicate mP values were averaged, and error bars represent standard deviation. Data were plotted and analyzed using Prism 9 software. […] IC50 values from three independent experiments were averaged and the standard deviation was calculated.

[2] = biological target: T1, SPOP^MATH (SPOP MATH domain); test: Fluorescence polarization (FP) binding of 5Flu-labelled peptides to SPOP^MATH; conditions: FP direct binding; 6-50 nM 5Flu-peptide, two-fold dilution series of SPOP^MATH; 50 mM HEPES pH 7.5, 100 mM NaCl, 1 mM TCEP, 0.005% Tween-20; 30 min at room temperature, read at 25°C; one-site total binding fit; mean ± SD of three independent experiments; ~ = estimated; read-out: Kd, binding of fluorescently (5Flu) labeled peptide to SPOP^MATH
Method: as §1

[3] = biological target: Pdx1 15-mer peptide, fluorescently labeled (SPOP-binding region of pancreas/duodenum homeobox protein 1) (not stated (Figure 5A aligns a Homo sapiens and a Mesocricetus auratus sequence)); test: fluorescence polarisation; two-fold dilution series of SPOP^MATH mixed with a constant 6-50 nM 5Flu-labeled peptide; 50 mM HEPES pH 7.5, 100 mM NaCl, 1 mM TCEP, 0.005% Tween-20; 25°C; one-site total binding fit; mean of three independent experiments
[4] = biological target: T2, SPOP MATH domain (SPOP^MATH; residues 28-166) (human, UniProt O43791 28-166); test: fluorescence polarisation; competition: two-fold dilution series of unlabeled peptide with 50 nM Puc-5Flu peptide and 5 μM SPOP^MATH; 50 mM HEPES pH 7.5, 100 mM NaCl, 1 mM TCEP, 0.005% Tween-20; 25°C; conditions: both partners purified
T2 construct: the methods print 28-116; Cleaved with HRV 3C protease; also called speckle-type BTB/POZ protein MATH domain; source: E. coli BL21 (DE3), purified (Ni-NTA, tag cleavage, reverse Ni-NTA, SEC); not shown: His6, N-terminal, cleaved; MBP, N-terminal, cleaved

[5] = biological target: T3, SPOP MATH domain (SPOP^MATH; residues 28-166) (human, UniProt O43791 28-166); test: FP
T3 chain: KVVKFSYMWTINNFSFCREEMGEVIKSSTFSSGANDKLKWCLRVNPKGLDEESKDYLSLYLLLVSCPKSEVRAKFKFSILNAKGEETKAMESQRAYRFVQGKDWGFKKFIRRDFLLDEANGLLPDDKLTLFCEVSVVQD

[6] = biological target: T3, SPOP MATH domain (SPOP^MATH; residues …); test: FP
[7] = biological target: T2, SPOP MATH domain (SPOP^MATH; residues …); test: fluorescence polarisation; two-fold dilution series of SPOP^MATH mixed with a constant 6-50 nM 5Flu-labeled peptide; 50 mM HEPES pH 7.5, 100 mM NaCl, 1 mM TCEP, 0.005% Tween-20; 25°C; one-site total binding fit; mean of three independent experiments; conditions: both partners purified
[8] = biological target: T4, SPOP MATH domain (SPOP^MATH; residues 28-166) (human), O43791; test: FP; conditions: modification not given
T4 chain: T3 chain

Molecule: AEKPLQVAAVAAAVPRT
- IC50 [1]: ~2.11 mM

Molecule: CC(C)C[C@H](NC(=O)[C@@H]1CCCN1)C(=O)N[C@@H](CCC(N)=O)C(=O)N[C@H](C(=O)N[C@@H](C)C(=O)N[C@@H](C)C(=O)N[C@H](C(=O)N[C@@H](CC(=O)O)C(=O)N[C@@H](CO)C(=O)N[C@@H](CO)C(=O)N[C@H](C(=O)N1CCC[C@H]1C(=O)N[C@@H](CCCNC(=N)N)C(=O)N[C@H](C(=O)O)[C@@H](C)O)C(C)C)C(C)C)C(C)C
- IC50 [1]: ~0.518 mM

- Kd [2]: ~48 µM
Molecule: CC(C)[C@H](NC(=O)c1ccc2c(c1)C(=O)OC21c2ccc(O)cc2Oc2cc(O)ccc21)C(=O)N[C@@H](C)C(=O)N[C@@H](CCC(=O)O)C(=O)N1CCC[C@H]1C(=O)N[C@@H](CCC(=O)O)C(=O)N[C@@H](CCC(N)=O)C(=O)N[C@@H](CC(=O)O)C(=O)N[C@@H](CS)C(=O)N[C@@H](C)C(=O)N[C@H](C(=O)N[C@H](C(=O)N[C@@H](CO)C(=O)NCC(=O)N[C@@H](CCC(=O)O)C(=O)N[C@@H](CCC(=O)O)C(=O)O)[C@@H](C)O)C(C)C (5FAM-VAEPEQDCAVTSGEE-OH)

- Kd [3]: 48 µM
Molecule: SPOP MATH domain (SPOP^MATH; residues 28-166) (from UniProt O43791 28-166) (domain or fragment)

- binding result [4]: binds
- IC50 [5]: 16.9 µM
B1: SRC-3 17-mer peptide 91NDDDVQKADVSSTGQGV107 (peptide)
peptide: NDDDVQKADVSSTGQGV
notes: also called NCoA-3; source: synthetic peptide

- binding result [4]: binds
B2: chimeric MyD88-Puc peptide AEKPLQVAAVTSTTS (peptide)
peptide: AEKPLQVAAVTSTTS
notes: Puckered (Puc) SBC; also called chimeric peptide; source: synthetic peptide (Peptide Synthetics, Peptide Protein Research Limited)

- IC50 [6]: 98.6 µM
Molecule: SRENLACDEVTSTTS [Puc peptide (unlabeled competitor; natural Puc peptide)]

- binding result [4]: binds
- IC50 [5]: ~699 µM
B3: SETD2 17-mer peptide DKGSVQAPEISSNSIKD (printed 363-1379) (peptide)
peptide: DKGSVQAPEISSNSIKD
notes: SET domain-containing protein 2 (SETD2), human; also called SET domain-containing protein 2; source: synthetic peptide

- Kd [7]: 1100 nM
B4: Puc-5Flu peptide (SRENLACDEVTSTTSK-5Flu) (peptide)
peptide: SRENLACDEVTSTTSK(5Flu)
notes: added C-terminal lysine that carries the label; also called ^5Flu-Puc peptide; fluorescently labeled Puc peptide; source: synthetic peptide (Peptide Synthetics, Peptide Protein Research Limited)

- IC50 [5]: ~2400 µM
Molecule: DTDNLQSEQLSSSSDGS [SENP7 17-mer peptide]

- IC50 [5]: ~773 µM
Molecule: LVSSTSEGY [Caprin1 9-mer peptide]

- IC50 [8]: 2.11 mM
Molecule: AEKPLQVAAVAAAVPRT […]

- binding result [4]: binds
- IC50 [5]: 2.6 µM
B5: Caprin1 17-mer peptide 426QPEATQVPLVSSTSEGY442 (peptide)
peptide: QPEATQVPLVSSTSEGY
notes: Caprin1, human, residues 426-442; source: synthetic peptide
